This passage reports midpoint (t^50) of the in vitro biotinylation of MBP-BccP; 20 nM biotin ligase, 2 µM BccP, 37°C, streptavidin-HRP blot and binding signal (% probe shifted results from paper PMC11580435.

In data set [1] the target is MBP-BccP (S. flexneri) (UniProt P0ABE1).
Data set [2] has as its target 6xHis-BioID R118G (Escherichia coli K-12) (UniProt P06709). Description: EMSA. As to conditions: 50 mM Tris-HCl pH 8.0, 1 mM EDTA, 50 mM NaCl, 1 mM ATP, 1 mM MgCl2, 1 uM biotin, 10% glycerol; 30 min room temperature; 5% PAGE in 0.5x TAE at 4 C.
Data set [3] has as its target 6xHis-BirA (Escherichia coli K-12) (UniProt P06709). As to the kind of experiment: EMSA. As to conditions: 50 mM Tris-HCl pH 8.0, 1 mM EDTA, 50 mM NaCl, 1 mM ATP, 1 mM MgCl2, 1 uM biotin, 10% glycerol; 30 min room temperature; 5% PAGE in 0.5x TAE at 4 C. Background: A gel shift assay detects complexes by their altered migration in electrophoresis.
Data set [4] relates to 6xHis-BioID (Escherichia coli K-12). Description: EMSA. As to conditions: 50 mM Tris-HCl pH 8.0, 1 mM EDTA, 50 mM NaCl, 1 mM ATP, 1 mM MgCl2, 1 uM biotin, 10% glycerol; 30 min room temperature; 5% PAGE in 0.5x TAE at 4 C.
Data set [5] concerns 6xHis-BirA (Escherichia coli K-12). As to the kind of experiment: EMSA. As to conditions: 50 mM Tris-HCl pH 8.0, 1 mM EDTA, 50 mM NaCl, 1 mM ATP, 1 mM MgCl2, 1 uM biotin, 10% glycerol; 30 min room temperature; 5% PAGE in 0.5x TAE at 4 C.
Data set [6] concerns 6xHis-TurboID (Escherichia coli K-12). Description: EMSA. As to conditions: 50 mM Tris-HCl pH 8.0, 1 mM EDTA, 50 mM NaCl, 1 mM ATP, 1 mM MgCl2, 1 uM biotin, 10% glycerol; 30 min room temperature; 5% PAGE in 0.5x TAE at 4 C.

Consider “6×His-BioID (from UniProt P06709 1-321) (enzyme)”, for which, in data set [1], the midpoint (t^50) of the in vitro biotinylation of MBP-BccP; 20 nM biotin ligase, 2 µM BccP, 37°C, streptavidin-HRP blot was 3.4 min. “GCCATGGGGCTTCTCCAAAACGTGTTTTTTGTTGTTAATTCGGTGTAGGCTTGTAAACCTAAATCTTTTCAATTTGGTTTACAAGTCGATTATGACAACGGACGATCTTGCC (double strand) [biotin operator probe (112 bp)]”: the binding signal (% probe shifted at 50 nM protein) was found to be 41 in data set [2] and 93 in data set [3].

Take biotin operator probe (112 bp): the binding signal (% probe shifted at 50 nM protein) in data set [4] stood at 41; in data set [5] it was 93; in data set [6], 0.8. As to “6×His-TurboID (from UniProt P06709 1-321) (enzyme)”, in data set [1], the midpoint (t^50) of the in vitro biotinylation of MBP-BccP; 20 nM biotin ligase, 2 µM BccP, 37°C, streptavidin-HRP blot stood at 14.6 min.
